Test results published in patent publication US8603949B2, “Libraries of optimized cytochrome P450 enzymes and the optimized P450 enzymes” (California Institute of Technology, priority 2003, dated 2013).

Experiment: Library plate screen, activity on 12-pNCA
Type: biochemical
Details: seven-crossover library, cell lysate
Description: These library plates were replicated and grown in 96 deep-well plates in 900 μL of LB media with 100 μg/ml ampicillin overnight at 30° C. and 250 rpm. 150 μL of this was then transferred to 850 μL of induction media (TB-media with final concentrations of 100 μg/ml ampicillin, 25 μg/ml thiamine, 0.5 mM δ-aminolevulinic acid and 0.6 mM IPTG). These were grown for 20-24 hours at 25° C. and 190 rpm, harvested by centrifugation at 5000×g for 8 minutes and frozen at −20° C. for at least 24 hours. Cells were resuspended using a pipetting robot (Multimek 96, Beckman) and lysed in 400 μL of Epps or Tris buffer (100 mM, pH 8.2) containing 0.8 mg/ml lysozyme and 2 units/mL DNaseI for 1 hour at 37° C. Plates were then spun for 8 minutes at 5000×g and 4° C. to pellet cell debris. 80 μL of lysate was transferred into 4 separate 96 well plates for each library plate. […] On one plate, high -throughput carbon monoxide spectroscopy was done in order to assess relative amounts of P450 (Otey, C. R. High-throughput carbon monoxide binding assay for cytochromes P450. In Directed Enzyme Evolution: Screening and Selection Methods, F. H. Arnold and G. Georgiou, eds. (Totowa, N.J.: Humana Press) pp. 137-139 (2003)) with 0.1 M sodium hydrosulfite being used in place of 0.4 M. The other three plates were used to assay activity on different substrates. […]

B1: Chimera F3791: chimera of the CYP102A1/A2/A3 seven-crossover library (protein)
chain: KETSPIPQPKTFGPLGNLPLIDKDKPTLSLIKLAEEQGPIFQIHTPAGTTIVVSGHELVKEVCDESRFDKNLSQALKFVRDFAGDGLATSWTHEKNWKKAHNILLPSFSQQAMKGYHAMMVDIAVQLIQKWARLNPNEAVDVPGDMTRLTLDTIGLCGFNYRFNSYYRDSQHPFITSMLRALKEAMNQSKRLGLQDKMMVKTKLQFQKDIEVMNSLVDKIIADRKASGEQSDDLLTHMLNGKDPETGEPLDDENIRYQIITFLIAGHETTSGLLSFATYFLLKHPDKLKKAYEEVDRVLTDAAPTYKQVLELTYIRMILNESLRLWPTAPAFSLYAKEDTVLGGEYPISKGQPVTVLIPKLHRDQNAWGPDAEDFRPERFEDPSSIPHHAYKPFGNGQRACIGMQFALQEATMVLGLVLKHFELINHTGYELKIKEALTIKPDDFKITVKPRKTAAINVQRKEQA
modifications: Chimeric Cytochrome P450 heme group polypeptide sequence from CYP102A1 (Bacillus megaterium); CYP102A2 (Bacillus subtilis) and CYP102A3 (Bacillus subtilis)
notes: chimera of the CYP102A1/A2/A3 seven-crossover library
activity for 12-pNCA compared to parent P450s: superior activity
